Test results reported in patent US20100196385A1 (AstraZeneca / MedImmune, published 2010).
Positions count from the first letter of the chain named. Names may count otherwise.

B1: 21H3 IgG1 (antibody, V domains shown)
VH: QVQLVQSGAEVKKPGASVKVSCKASGYTFTNYGITWVRQAPGQGPEWMGWISAYNGNTNYAQKLQDRVTVTTDTSTSTAYMELRSLRSDDTAVYYCARDRVPRIPVTTEAFDIWGQGTMVTVSS
VL: QSVLTQPPSASGTPGQRVTISCSGSSSNIGSYFVYWYQQLPGTAPKLLIYRNNQRPSGVPDRFSGSESGTSASLAISGLRSEDEADYYCAAWDDSLSGHWVFGGGTRLTVL
notes: Formatted as IgG1
B2: 9G8 IgG2 VH L38W/VL S7P (antibody, V domains shown)
VH: QLQLQESGPGLVKPSETLSLSCTVSGGSISSSSSYWGWIRQPPGKGLEWIGSIYYSGSTYYSPSLKSRVSISVDTSKNQFSLKLSSVTAADTAVYFCARQGYGGHPDVFDIWGQGTMVTVSS
VL: SSELTQPPSVSVSPGQTARITCSGDKLGDVYVCWYQQKTGQSPVLVIYEDTKRPSGIPERFSGSNSGNTATLTISGTQVMDEADYYCQAWDSTTAVIFGGGTKLTVL
notes: IgG2
B3: 9G8 IgG2 VH wt/VL C33S (antibody, V domains shown)
VH: B2 VH with W38L
VL: B2 VL with P7S, C33S
notes: IgG2
B4: 9G8 IgG2 VH wt/VL V79A (antibody, V domains shown)
VH: B2 VH with W38L
VL: B2 VL with P7S, V79A
notes: IgG2
B5: 9G8 IgG2 VH L38W/VL wt (antibody, V domains shown)
VH: B2 VH
VL: B2 VL with P7S
notes: IgG2
B6: 9G8 IgG2 VH wt/VL S7P (antibody, V domains shown)
VH: B2 VH with W38L
VL: B2 VL
notes: IgG2
B7: 2H10 IgG2 VH wt/VL wt (antibody, V domains shown)
VH: QVQLVESGGGVVQPGRSLRLSCAASGFTFSRHGMHWVRQAPGKGLEWVAVVWFDGSNIYYADSVKGRFTISRDNSKNTLYLQMNSLRAEDTAMYYCARDSRIAAADYWGQGTLVTVSS
VL: SYELTQPPSVSVSPGQTVSITCSGDKLGDKYVCWYQQKPGQSPVLVIYQESKRPSGIPERFSGSSSGNTATLTISGTQAMDEADYYCQTWDSSLVVFGGGTKLTVL
notes: IgG2, transiently expressed
B8: 2H10 IgG2 VH wt/VL C33S (antibody, V domains shown)
VH: B7 VH
VL: B7 VL with C33S
notes: IgG2
B9: 4B4 IgG1 (antibody, V domains shown)
VH: QVLLIQSGAEVKKPGASVQVSCKASGYTFTNYGVIWVRQAPGQGLEYMGWISAYNGNTNYAQKLQDRVTMTSDTSTTTAYMELRSLRSDDTAVYYCARELGSSFDYWGQGTLVTVSS
VL: SYELTQPPSVSVSPGQTARITCSGDALPKKYAYWYQQKSGQAPVLVIYEDIKRPSGIPERFSGSSSGTMATLTISGAQVEDEADYYCFSTDNSGDHSVFGGGTKLTVL
notes: Formatted as IgG1
B10: 4B4 IgG2 (antibody, V domains shown)
VH: B9 VH
VL: B9 VL
notes: Formatted as IgG2

Experiments:
full length human DLL4 [1] = target: T1, full length human DLL4 (human, UniProt Q9NR61 27-685); experiment: FACS titration, HEK293 cells with human DLL4
T1 construct: whole, on cells; also called native DLL4 expressed in HEK293 cells
Method: The binding affinities of the purified antibodies for DLL4 was estimated using is both FACS and BIAcore techniques. […] The cells were then washed and incubated with goat anti-human IgG-Fc-Cy5+5 μg/mL 7-Amino-Actinomycin (7AAD) for 30 minutes at 4° C.
In this equation, F=mean fluorescence, LT=total molecular mAb concentration, P′=proportionality constant that relates arbitrary fluorescence units to bound mAb, M=cellular concentration in molarity, n=number of receptors per cell, B=background signal, and KD=equilibrium dissociation constant. For each mAb titration curve an estimate for KD is obtained as P′, n, B, and KD are allowed to float freely in the nonlinear analysis. Table 20 summarizes the affinity estimates for the anti-DLL4 antibodies for human and cynomolgus monkey DLL4 derived using the methodology described above

[2] = target: T2, human soluble DLL4 (R&D systems catalog #1056-D4-050) (human, UniProt Q9NR61 27-524); experiment: Biacore T100, antibody immobilised, soluble human DLL4 as analyte
T2 construct: Catalog number as printed; perhaps the same product as #1506-D4; also called antigen DLL4
Method: For Biacore analysis, each purified anti-DLL4 antibody was immobilized on a CM5 sensor chip within a T100 using standard amine coupling. Immobilization levels were kept below 200 RU. The concentration of DLL4 was determined by UV-VIS spectroscopy using a molar absorptivity at 280 nm of 110, 440 M⁻¹cm⁻¹, which was calculated from the sequence of the protein using a method developed by Pace et al. (G. R. Grimsley and C. N. Pace (2003) in Current Protocols in Protein Science (John Wiley & Sons, Inc.), 3.1.1-3.1.9). The antigen DLL4 (R&D systems; human catalog #1056-D4-050 or mouse, catalog #1389-D4-050) was diluted to a starting concentration of 32-64 nM and tested in a 3-fold dilution series in triplicate. The running buffer contained HBS-P with 0.1 mg/ml BSA and binding responses were collected at 23° C. Bound complexes were regenerated with a 15 s pulse of 10 mM of sodium hydroxide. The response data were globally fitted with a simple 1:1 interaction model and Table 20 summarizes the kₐ, kd and KD estimates obtained for the anti-DLL4 antibodies when binding to human soluble DLL4 was assessed.

full length human DLL4 [3] = target: T1, full length human DLL4; experiment: FACS competition vs human Notch1/Fc, HEK293 cells with human DLL4
Method: (§1) Further experiments were performed on selected antibodies using HEK293 cells that were stably transfected with either human, mouse or cynomolgus monkey DLL4 using retroviral constructs. In these experiments, anti-DLL4 antibodies (final concentration: 10-0.01 μg/ml) diluted in PBS containing 2% FCS were added to DLL4-expressing HEK 293 cells (50000 cells/well diluted in PBS containing 2% FCS) and incubated for 1 h at 4° C. Subsequently, Alexa-647 labeled human, rat or APC labeled mouse Notch1/Fc (e.g. R&D Systems, catalog #3647-TK-050, 1057-TK-050, 5267-TK-050, respectively) was added at a final concentration of 0.01-0.5 μg/ml and plates were incubated for a further 2 h at 4° C. prior to washing and reading on a FACSCalibur instrument.

full length human DLL4 [4] = target: T1, full length human DLL4; experiment: FACS binding, HEK293 cells with human DLL4
Method: (§2) The activity of the mutated antibodies was assessed in two ways: firstly, the ability of the antibodies to block the binding of soluble Notch1/Fc to full length human DLL4 stably expressed in HEK293 cells as described in Example 3 was determined and, secondly, the binding of the antibodies to the same cell line used in the receptor-ligand competition studies was determined. For the binding studies, HEK293 cells stably overexpressing human DLL4 were resuspended in PBS containing 2% FCS at a concentration of 50,000 cells/well and incubated with titrations of antibody (final concentrations 0.01-10 μg/ml) for 1 h at 4° C. The cells were then washed and incubated with 0.31 μg/ml anti-human IgG-Fc-FITC (BD Pharmingen, cat#555786) for 30 minutes at 4° C. Bound […] was detected using FACS analysis. Results of these studies are summarized in Table 23, which show the effects of specific mutations to sequences of 9G8 and 2H10 on the ability of the antibodies to compete with Notch1 for binding to human DLL4 or to bind to human DLL4 relative to unmutated antibodies.

full length human DLL4 [5] = target: T1, full length human DLL4; experiment: FACS competition vs Notch1/Fc, HEK293 cells with human DLL4
Method: as §1, §2

T2 sequence (Q9NR61 27-524 limits assumed): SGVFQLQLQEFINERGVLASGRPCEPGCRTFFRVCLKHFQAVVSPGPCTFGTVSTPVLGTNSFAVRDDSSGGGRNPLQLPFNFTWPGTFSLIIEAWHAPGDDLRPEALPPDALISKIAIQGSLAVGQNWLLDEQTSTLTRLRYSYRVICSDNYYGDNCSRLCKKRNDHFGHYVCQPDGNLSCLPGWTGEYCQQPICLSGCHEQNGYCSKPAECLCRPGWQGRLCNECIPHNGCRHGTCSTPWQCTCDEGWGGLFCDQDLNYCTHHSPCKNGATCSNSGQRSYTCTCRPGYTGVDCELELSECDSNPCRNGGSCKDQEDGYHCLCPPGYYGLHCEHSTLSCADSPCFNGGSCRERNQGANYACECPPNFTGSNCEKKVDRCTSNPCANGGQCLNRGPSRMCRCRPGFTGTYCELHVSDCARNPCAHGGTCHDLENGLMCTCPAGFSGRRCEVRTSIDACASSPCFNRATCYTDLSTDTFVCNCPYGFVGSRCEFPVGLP
T1 sequence (Q9NR61 27-685): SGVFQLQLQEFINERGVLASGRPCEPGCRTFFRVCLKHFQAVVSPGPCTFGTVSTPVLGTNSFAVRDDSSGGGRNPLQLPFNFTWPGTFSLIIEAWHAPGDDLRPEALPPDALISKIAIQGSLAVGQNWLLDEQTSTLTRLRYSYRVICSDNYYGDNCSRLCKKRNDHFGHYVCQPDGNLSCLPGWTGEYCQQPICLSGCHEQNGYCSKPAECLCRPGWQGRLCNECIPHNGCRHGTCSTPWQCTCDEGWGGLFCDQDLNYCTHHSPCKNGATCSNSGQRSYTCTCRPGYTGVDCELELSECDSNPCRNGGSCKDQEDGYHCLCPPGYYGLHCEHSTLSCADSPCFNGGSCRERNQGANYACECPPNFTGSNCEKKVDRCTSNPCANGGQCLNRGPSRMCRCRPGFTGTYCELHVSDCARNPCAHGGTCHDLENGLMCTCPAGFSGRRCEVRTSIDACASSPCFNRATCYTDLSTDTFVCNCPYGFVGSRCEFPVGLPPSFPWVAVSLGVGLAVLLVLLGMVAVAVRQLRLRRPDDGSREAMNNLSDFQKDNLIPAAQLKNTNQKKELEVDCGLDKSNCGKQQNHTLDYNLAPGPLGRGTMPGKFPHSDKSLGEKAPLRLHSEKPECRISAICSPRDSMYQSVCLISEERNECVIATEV

Row | Binder | Kd (full length human DLL4 [1]) [pM] | Kd [2] [pM] | koff [2] [s⁻¹] | kon [2] [M⁻¹ s⁻¹] | IC50 (full length human DLL4 [3]) [pM] | EC50 (full length human DLL4 [4]) [µg/mL] | IC50 (full length human DLL4 [5]) [µg/mL]
1 | B1 | 103 | 594 | 0.000171 | 288000 | 570 | – | –
2 | B2 | – | – | – | – | – | 0.074 | 0.155
3 | B3 | – | – | – | – | – | 0.067 | 0.136
4 | B4 | – | – | – | – | – | 0.095 | 0.211
5 | B5 | – | – | – | – | – | 0.07 | 0.133
6 | B6 | – | – | – | – | – | 0.082 | 0.181
7 | B7 | – | – | – | – | – | 0.043 | 0.224
8 | B8 | – | – | – | – | – | 0.031 | 0.084
9 | B9 | 157 | 170 | 2.01e-05 | 118000 | 850 | – | –
10 | B10 | 232 | 336 | 3.6e-05 | 107000 | 1190 | – | –
